Four molecules from US20140271603A1 (LABORATOIRE FRANCAIS DU FRACTIONNEMENT ET DES …, published 2014) can be followed below.

Experiment [1] addresses T1, C3 convertase of the alternative pathway (C3bBb) formed on C3b-coated wells (UniProt P01024 749-1663; P01024 23-667; P00751 260-764, limits assumed). The experiment in a line: cell-based or functional assay.
Experiment [2] has as its target T1, C3 convertase of the alternative …. The experiment in a line: cell-based or functional assay. The source holds these as a separate data set.

Changes are numbered by the printed parent chain.

T1 sequence (P01024 749-1663 limits assumed, chain 1 of 3): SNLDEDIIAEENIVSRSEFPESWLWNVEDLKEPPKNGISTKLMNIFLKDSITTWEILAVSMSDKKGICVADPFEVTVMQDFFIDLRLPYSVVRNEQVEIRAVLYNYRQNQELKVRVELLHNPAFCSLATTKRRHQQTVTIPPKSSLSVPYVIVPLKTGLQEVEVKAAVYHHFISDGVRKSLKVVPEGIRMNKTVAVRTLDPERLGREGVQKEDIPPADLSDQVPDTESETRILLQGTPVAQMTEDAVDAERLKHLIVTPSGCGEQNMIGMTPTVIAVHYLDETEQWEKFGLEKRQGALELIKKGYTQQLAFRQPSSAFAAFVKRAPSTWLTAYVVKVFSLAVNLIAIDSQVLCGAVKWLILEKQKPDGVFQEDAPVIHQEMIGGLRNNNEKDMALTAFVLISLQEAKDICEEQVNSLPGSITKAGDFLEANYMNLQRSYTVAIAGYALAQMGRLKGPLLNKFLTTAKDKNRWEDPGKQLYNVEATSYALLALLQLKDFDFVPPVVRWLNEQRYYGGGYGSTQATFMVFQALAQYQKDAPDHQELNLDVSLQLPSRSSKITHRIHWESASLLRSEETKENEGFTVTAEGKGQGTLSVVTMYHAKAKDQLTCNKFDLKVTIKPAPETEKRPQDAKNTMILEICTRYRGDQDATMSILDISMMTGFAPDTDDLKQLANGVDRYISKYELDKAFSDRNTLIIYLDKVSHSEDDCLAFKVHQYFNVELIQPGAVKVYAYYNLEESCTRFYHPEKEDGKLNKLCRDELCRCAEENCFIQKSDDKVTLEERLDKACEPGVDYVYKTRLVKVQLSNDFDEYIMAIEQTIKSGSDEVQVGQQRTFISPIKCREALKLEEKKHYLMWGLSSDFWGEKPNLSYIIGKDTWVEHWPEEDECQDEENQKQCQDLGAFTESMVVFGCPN
T1 sequence (P01024 23-667 limits assumed, chain 2 of 3): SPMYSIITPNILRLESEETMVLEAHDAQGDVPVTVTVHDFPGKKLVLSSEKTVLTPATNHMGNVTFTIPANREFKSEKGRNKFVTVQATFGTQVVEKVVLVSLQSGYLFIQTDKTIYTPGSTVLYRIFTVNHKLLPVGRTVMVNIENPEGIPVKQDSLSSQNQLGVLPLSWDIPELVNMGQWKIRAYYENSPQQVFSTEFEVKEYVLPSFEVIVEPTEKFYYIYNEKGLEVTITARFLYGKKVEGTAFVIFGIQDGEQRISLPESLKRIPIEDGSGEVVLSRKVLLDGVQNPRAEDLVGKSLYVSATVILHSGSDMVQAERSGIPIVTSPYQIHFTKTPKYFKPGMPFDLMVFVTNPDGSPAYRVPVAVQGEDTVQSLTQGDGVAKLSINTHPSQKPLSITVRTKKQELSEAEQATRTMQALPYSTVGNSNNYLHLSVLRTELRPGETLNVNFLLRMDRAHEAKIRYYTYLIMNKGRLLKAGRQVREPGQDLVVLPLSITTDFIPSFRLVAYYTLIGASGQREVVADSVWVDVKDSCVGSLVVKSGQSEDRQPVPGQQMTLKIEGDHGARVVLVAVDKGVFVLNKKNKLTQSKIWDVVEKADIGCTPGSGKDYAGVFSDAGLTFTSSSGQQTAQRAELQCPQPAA
T1 sequence (P00751 260-764 limits assumed, chain 3 of 3): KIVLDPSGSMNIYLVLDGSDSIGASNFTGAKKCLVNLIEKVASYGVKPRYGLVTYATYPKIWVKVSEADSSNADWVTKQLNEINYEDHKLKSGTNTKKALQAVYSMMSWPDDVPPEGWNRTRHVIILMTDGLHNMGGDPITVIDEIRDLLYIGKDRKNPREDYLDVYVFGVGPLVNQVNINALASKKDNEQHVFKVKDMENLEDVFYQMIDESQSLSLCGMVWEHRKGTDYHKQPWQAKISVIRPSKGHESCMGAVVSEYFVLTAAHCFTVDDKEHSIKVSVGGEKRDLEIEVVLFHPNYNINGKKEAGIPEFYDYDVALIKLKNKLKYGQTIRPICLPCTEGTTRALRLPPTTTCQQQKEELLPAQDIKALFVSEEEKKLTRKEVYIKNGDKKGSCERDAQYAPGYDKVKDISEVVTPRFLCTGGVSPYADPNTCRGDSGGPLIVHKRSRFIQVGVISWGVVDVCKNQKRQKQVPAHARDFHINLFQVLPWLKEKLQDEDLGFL

B1: recombinant human factor H, H402 variant, produced in the HEK 293F cell line (other)
chain: EDCNELPPRRNTEILTGSWSDQTYPEGTQAIYKCRPGYRSLGNVIMVCRKGEWVALNPLRKCQKRPCGHPGDTPFGTFTLTGGNVFEYGVKAVYTCNEGYQLLGEINYRECDTDGWTNDIPICEVVKCLPVTAPENGKIVSSAMEPDREYHFGQAVRFVCNSGYKIEGDEEMHCSDDGFWSKEKPKCVEISCKSPDVINGSPISQKIIYKENERFQYKCNMGYEYSERGDAVCTESGWRPLPSCEEKSCDNPYIPNGDYSPLRIKHRTGDEITYQCRNGFYPATRGNTAKCTSTGWIPAPRCTLKPCDYPDIKHGGLYHENMRRPYFPVAVGKYYSYYCDEHFETPSGSYWDHIHCTQDGWSPAVPCLRKCYFPYLENGYNQNHGRKFVQGKSIDVACHPGYALPKAQTTVTCMENGWSPTPRCIRVKTCSKSSIDIENGFISESQYTYALKEKAKYQCKLGYVTADGETSGSITCGKDGWSAQPTCIKSCDIPVFMNARTKNDFTWFKLNDTLDYECHDGYESNTGSTTGSIVCGYNGWSDLPICYERECELPKIDVHLVPDRKKDQYKVGEVLKFSCKPGFTIVGPNSVQCYHFGLSPDLPICKEQVQSCGPPPELLNGNVKEKTKEEYGHSEVVEYYCNPRFLMKGPNKIQCVDGEWTTLPVCIVEESTCGDIPELEHGWAQLSSPPYYYGDSVEFNCSESFTMIGHRSITCIHGVWTQLPQCVAIDKLKKCKSSNLIILEEHLKNKKEFDHNSNIRYRCRGKEGWIHTVCINGRWDPEVNCSMAQIQLCPPPPQIPNSHNMTTTLNYRDGEKVSVLCQENYLIQEGEEITCKDGRWQSIPLCVEKIPCSQPPQIEHGTINSSRSSQESYAHGTKLSYTCEGGFRISEENETTCYMGKWSSPPQCEGLPCKSPPEISHGVVAHMSDSYQYGEEVTYKCFEGFGIDGPAIAKCLGEKWSHPPSCIKTDCLSLPSFENAIPMGEKKDVYKAGEQVTYTCATYYKMDGASNVTCINSRWTGRPTCRDTSCVNPPTVQNAYIVSRQMSKYPSGERVRYQCRSPYEMFGDEEVMCLNGNWTEPPQCKDSTGKCGPPPPIDNGDITSFPLSVYAPASSVEYQCQNLYQLEGNKRITCRNGQWSEPPKCLHPCVISREIMENYNIALRWTAKQKLYSRTGESVEFVCKRGYRLSSRSHTLRTTCWDGKLEYPTCAKR
Turning to B1, the “IC50, acceleration of the dissociation of C3 convertase (culture supernatant HEK MD2-H402)” value in experiment [1] was determined as 0.052 µg/mL.

B2: recombinant human factor H, H402 variant, produced in the PER.C6 cell line (other)
chain: B1 chain
For the molecule B2, the “IC50, acceleration of the dissociation of C3 convertase (culture supernatant PERC6 MD2-H402)” value in experiment [1] came out at 0.0546 µg/mL.

B3: recombinant human factor H, Y402 variant, produced in the PER.C6 cell line (other)
chain: B1 chain with H384Y
Consider B3, for which the “IC50, acceleration of the dissociation of C3 convertase (sample: Purified FH PER.C6)” value in experiment [2] was found to be 0.0451 µg/mL. Also, in experiment [1], the “IC50, acceleration of the dissociation of C3 convertase (culture supernatant PERC6 MD2-Y402)” value was 0.0487 µg/mL and the “IC50, acceleration of the dissociation of C3 convertase (culture supernatant PERC6 MD3-Y402)” value turned out to be 0.0559 µg/mL.

B4: recombinant human factor H, Y402 variant, produced in the HEK 293F cell line (other)
chain: B1 chain with H384Y
B4: the “IC50, acceleration of the dissociation of C3 convertase (sample: Purified FH HEK)” value in experiment [2] amounted to 0.0506 µg/mL. Besides, in experiment [1], the “IC50, acceleration of the dissociation of C3 convertase (culture supernatant HEK MD1-Y402)” value turned out to be 0.0538 µg/mL; the “IC50, acceleration of the dissociation of C3 convertase (culture supernatant HEK MD2-Y402)” value came to 0.0507 µg/mL; the “IC50, acceleration of the dissociation of C3 convertase (culture supernatant HEK MD3-Y402)” value was 0.0528 µg/mL.
